Results published in US20220089776A1 (OREGON HEALTH AND SCIENCE UNIVERSITY, published 2022).

Assays:
Test in all cases: Western blot of platelet-poor plasma; primary antibody murine 5C12
pig FXII = molecular target: T1, pig FXII (pig, UniProt O97507 20-616)
T1 construct: mature; Plasma protein
T1 sequence (looked up): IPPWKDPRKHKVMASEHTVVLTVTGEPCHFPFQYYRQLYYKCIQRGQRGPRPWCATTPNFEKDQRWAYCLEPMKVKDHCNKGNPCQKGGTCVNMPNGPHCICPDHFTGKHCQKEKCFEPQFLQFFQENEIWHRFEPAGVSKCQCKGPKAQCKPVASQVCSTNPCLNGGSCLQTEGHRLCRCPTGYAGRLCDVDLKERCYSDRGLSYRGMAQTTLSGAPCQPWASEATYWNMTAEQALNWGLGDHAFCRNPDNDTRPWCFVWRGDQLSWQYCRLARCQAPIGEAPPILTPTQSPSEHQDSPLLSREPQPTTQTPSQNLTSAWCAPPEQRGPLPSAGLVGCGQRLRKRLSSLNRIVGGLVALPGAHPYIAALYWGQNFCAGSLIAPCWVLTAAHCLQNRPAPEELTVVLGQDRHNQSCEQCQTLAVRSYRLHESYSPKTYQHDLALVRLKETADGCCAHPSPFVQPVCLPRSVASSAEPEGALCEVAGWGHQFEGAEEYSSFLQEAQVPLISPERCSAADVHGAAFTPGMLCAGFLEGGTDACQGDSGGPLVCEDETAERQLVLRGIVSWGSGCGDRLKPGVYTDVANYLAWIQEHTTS
Source text: (§1) FIG. 3A-3C: Species specificity of 5C12. (FIG. 3A) Western blots of platelet poor plasmas from different species (indicated above each lane) size fractionated by SDS-PAGE […]. Species included in alphabetical order: African green monkey, baboon, beagle, cat, cattle, chicken, cynomolgus monkey, dog, elephant, giant anteater, horse, human, human deficient in FXII, llama, marmoset, pig, rabbit, raccoon, rat, red kangaroo, rhesus macaque and tiger. Human plasma and human deficient in FXII plasma were used in all gels as a positive and negative control, respectively. […] 5C12 also recognizes both the alpha (comprising both the light and heavy chain of FXII) and the beta (comprising only the light chain and a nonapeptide fragment of the heavy chain) form of activated FXII (FXIIa) (FIG. 3C). The primary antibody for all Western blots was murine 5C12, the secondary antibody was goat-anti-mouse polyclonal.

rabbit FXII = molecular target: T2, rabbit FXII (rabbit, UniProt G1SIB7 20-617)
T2 construct: Plasma protein
T2 sequence: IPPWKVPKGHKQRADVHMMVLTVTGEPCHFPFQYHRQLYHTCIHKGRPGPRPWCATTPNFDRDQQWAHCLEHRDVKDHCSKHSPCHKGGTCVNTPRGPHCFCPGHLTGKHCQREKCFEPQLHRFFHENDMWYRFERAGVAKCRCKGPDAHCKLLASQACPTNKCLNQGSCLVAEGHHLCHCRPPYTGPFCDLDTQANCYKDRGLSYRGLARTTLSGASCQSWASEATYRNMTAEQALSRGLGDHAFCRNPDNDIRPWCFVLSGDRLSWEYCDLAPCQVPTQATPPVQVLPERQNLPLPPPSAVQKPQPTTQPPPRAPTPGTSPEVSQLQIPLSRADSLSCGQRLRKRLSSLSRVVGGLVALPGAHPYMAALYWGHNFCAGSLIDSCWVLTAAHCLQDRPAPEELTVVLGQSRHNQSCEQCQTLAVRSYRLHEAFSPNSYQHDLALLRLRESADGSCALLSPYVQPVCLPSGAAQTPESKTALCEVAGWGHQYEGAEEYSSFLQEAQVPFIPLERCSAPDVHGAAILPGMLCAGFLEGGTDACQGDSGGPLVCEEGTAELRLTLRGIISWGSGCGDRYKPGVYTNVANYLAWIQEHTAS
Source text: as §1

cattle FXII = molecular target: T3, cattle FXII (cattle, UniProt P98140 20-612)
T3 construct: mature; Plasma protein
T3 sequence (looked up): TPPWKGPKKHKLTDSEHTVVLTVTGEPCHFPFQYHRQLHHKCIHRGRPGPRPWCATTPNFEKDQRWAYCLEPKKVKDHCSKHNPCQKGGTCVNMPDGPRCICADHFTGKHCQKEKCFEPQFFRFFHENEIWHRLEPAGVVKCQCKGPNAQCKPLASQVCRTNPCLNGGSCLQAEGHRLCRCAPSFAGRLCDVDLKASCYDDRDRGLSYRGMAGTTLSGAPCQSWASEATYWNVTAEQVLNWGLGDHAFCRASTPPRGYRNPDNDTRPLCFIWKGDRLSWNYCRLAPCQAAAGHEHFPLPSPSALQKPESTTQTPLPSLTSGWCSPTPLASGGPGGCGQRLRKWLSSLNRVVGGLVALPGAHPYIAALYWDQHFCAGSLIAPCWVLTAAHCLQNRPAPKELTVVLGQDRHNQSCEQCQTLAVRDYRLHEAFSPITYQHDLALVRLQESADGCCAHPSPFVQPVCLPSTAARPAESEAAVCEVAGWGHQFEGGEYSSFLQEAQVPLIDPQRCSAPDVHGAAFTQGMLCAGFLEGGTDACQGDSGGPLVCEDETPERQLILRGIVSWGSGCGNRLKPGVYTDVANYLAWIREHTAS
Source text: as §1

rhesus macaque FXII = molecular target: T4, rhesus macaque FXII (rhesus macaque, UniProt F7FY72 20-615)
T4 construct: Plasma protein
T4 sequence: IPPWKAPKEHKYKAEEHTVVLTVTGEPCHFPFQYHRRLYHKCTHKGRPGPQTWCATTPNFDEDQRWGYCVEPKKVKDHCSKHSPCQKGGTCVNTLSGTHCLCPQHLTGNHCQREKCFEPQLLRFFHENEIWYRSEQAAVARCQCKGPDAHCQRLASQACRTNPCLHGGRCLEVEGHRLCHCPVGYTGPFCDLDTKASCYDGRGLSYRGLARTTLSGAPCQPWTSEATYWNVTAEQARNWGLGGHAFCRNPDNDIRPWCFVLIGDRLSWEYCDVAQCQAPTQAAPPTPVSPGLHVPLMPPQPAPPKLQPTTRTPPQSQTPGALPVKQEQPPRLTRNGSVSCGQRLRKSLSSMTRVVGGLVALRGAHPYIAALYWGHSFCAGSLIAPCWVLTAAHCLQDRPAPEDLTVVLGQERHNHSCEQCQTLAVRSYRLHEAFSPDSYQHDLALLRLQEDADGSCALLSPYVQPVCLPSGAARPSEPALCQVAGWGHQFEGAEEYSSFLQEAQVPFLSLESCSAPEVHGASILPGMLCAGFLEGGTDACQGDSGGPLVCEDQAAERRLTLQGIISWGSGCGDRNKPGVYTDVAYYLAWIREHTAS
Source text: as §1

Measured: binding result

B1: mouse monoclonal antibody 5C12 (antibody, mouse IgG1, kappa, V domains shown)
VH: DVQLQESGPDLVKPSQSLSLTCTVTGYSITSGYSWHWIRQFPGNNLEWMGYIQYSGNTNSNPSLKSRISITRDTSKNQFFLHLNSVTTEDTATYYCARWGSFDYWGQGTTLTVSS
VL: QIVLTQSPAIMSASPGEKVTMTCSASSSVNYMHWYQQKSGTSPKRWIYDTSKLASGVPARFSGSGSGTSYSLTISSMEAGDAATYYCQQWSGNPPTFGGGTILEIKR
notes: Purified from hybridoma; also called AB053; 5C12 MAb
no binding: all assays above
